# The supplement of paper PMC10567573
# B1: PWWP2B (parent)
# chain: TIRLRPRQVLCEKCKSTLSPPEAS
# Variants of: B1
# Experiment: protein stability index of a GFP-peptide fusion (GPS, HEK-293T) (PSI 1-6); higher = more stable
# Settings: c terminus: a fixed tail appended
# 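Note: lentivirally expressed fusions sorted by FACS into six bins by GFP to DsRed ratio, PSI derived from sequencing read proportions per bin multiplied by bin number.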
row,Variant,protein stability index
1,TIRLRPRQVLCEKCKSTLSPPEAN,2.98
2,TIRLRPRQVLCEKCKSTLSPPEAV,2.62
3,TIRLRPRQVLCEKCKSTLSPPEAF,2.36
4,TIRLRPRQVLCEKCKSTLSPPEAQ,3.09
5,TIRLRPRQVLCEKCKSTLSPPEAE,3.28
6,TIRLRPRQVLCEKCKSTLSPPEAW,1.93
7,TIRLRPRQVLCEKCKSTLSPPEAP,2.9
8,TIRLRPRQVLCEKCKSTLSPPEAL,2.66
9,TIRLRPRQVLCEKCKSTLSPPEAK,2.7
10,TIRLRPRQVLCEKCKSTLSPPEAC,2.99
11,TIRLRPRQVLCEKCKSTLSPPEAT,3.25
12,TIRLRPRQVLCEKCKSTLSPPEAH,2.63
13,TIRLRPRQVLCEKCKSTLSPPEAR,3.02
14,TIRLRPRQVLCEKCKSTLSPPEAY,2.89
15,TIRLRPRQVLCEKCKSTLSPPEAM,1.97
16,TIRLRPRQVLCEKCKSTLSPPEAD,3.44
17,TIRLRPRQVLCEKCKSTLSPPEAA,2.64
18,TIRLRPRQVLCEKCKSTLSPPEAG,2.6
19,TIRLRPRQVLCEKCKSTLSPPEIS,2.61
20,TIRLRPRQVLCEKCKSTLSPPETS,2.99
21,TIRLRPRQVLCEKCKSTLSPPEVS,2.91
22,TIRLRPRQVLCEKCKSTLSPPECS,3.15
23,TIRLRPRQVLCEKCKSTLSPPENS,3.12
24,TIRLRPRQVLCEKCKSTLSPPEGS,2.87

row,Variant,protein stability index
1,TIRLRPRQVLCEKCKSTLSPPEHS,2.83
2,TIRLRPRQVLCEKCKSTLSPPEMS,3.01
3,TIRLRPRQVLCEKCKSTLSPPEKS,3.02
4,TIRLRPRQVLCEKCKSTLSPPEDS,3.54
5,TIRLRPRQVLCEKCKSTLSPPEFS,2.43
6,TIRLRPRQVLCEKCKSTLSPPEWS,1.96
7,TIRLRPRQVLCEKCKSTLSPPEQS,3.94
8,TIRLRPRQVLCEKCKSTLSPPEYS,2.47
9,TIRLRPRQVLCEKCKSTLSPPESS,2.75
10,TIRLRPRQVLCEKCKSTLSPPEPS,3.3
11,TIRLRPRQVLCEKCKSTLSPPERS,2.73
12,TIRLRPRQVLCEKCKSTLSPPEES,3.49
13,TIRLRPRQVLCEKCKSTLSPPELS,2.47
14,TIRLRPRQVLCEKCKSTLSRPEAS,2.65
15,TIRLRPRQVLCEKCKSTLSCPEAS,2.87
16,TIRLRPRQVLCEKCKSTLSGPEAS,3.29
17,TIRLRPRQVLCEKCKSTLSYPEAS,2.42
18,TIRLRPRQVLCEKCKSTLSKPEAS,2.66
19,TIRLRPRQVLCEKCKSTLSIPEAS,2.44
20,TIRLRPRQVLCEKCKSTLSHPEAS,2.24
21,TIRLRPRQVLCEKCKSTLSVPEAS,2.9
22,TIRLRPRQVLCEKCKSTLSLPEAS,2.41
23,TIRLRPRQVLCEKCKSTLSDPEAS,3.5
24,TIRLRPRQVLCEKCKSTLSFPEAS,2.26

row,Variant,protein stability index
1,TIRLRPRQVLCEKCKSTLSWPEAS,2.45
2,TIRLRPRQVLCEKCKSTLSNPEAS,2.63
3,TIRLRPRQVLCEKCKSTLSEPEAS,3.22
4,TIRLRPRQVLCEKCKSTLSSPEAS,2.79
5,TIRLRPRQVLCEKCKSTLSMPEAS,2.55
6,TIRLRPRQVLCEKCKSTLSTPEAS,2.76
7,TIRLRPRQVLCEKCKSTLSAPEAS,2.79
8,TIRLRPRQVLCEKCKSTLSQPEAS,3.03
9,TIRLRPRQVLCEKCKSTLPPPEAS,3.16
10,TIRLRPRQVLCEKCKSTLLPPEAS,2.72
11,TIRLRPRQVLCEKCKSTLYPPEAS,2.94
12,TIRLRPRQVLCEKCKSTLDPPEAS,3.68
13,TIRLRPRQVLCEKCKSTLWPPEAS,1.84
14,TIRLRPRQVLCEKCKSTLNPPEAS,3.25
15,TIRLRPRQVLCEKCKSTLTPPEAS,2.37
16,TIRLRPRQVLCEKCKSTLCPPEAS,2.99
17,TIRLRPRQVLCEKCKSTLHPPEAS,2.68
18,TIRLRPRQVLCEKCKSTLQPPEAS,3.01
19,TIRLRPRQVLCEKCKSTLAPPEAS,3.02
20,TIRLRPRQVLCEKCKSTLKPPEAS,2.56
21,TIRLRPRQVLCEKCKSTLIPPEAS,3.35
22,TIRLRPRQVLCEKCKSTLRPPEAS,2.59
23,TIRLRPRQVLCEKCKSTLMPPEAS,2.74
24,TIRLRPRQVLCEKCKSTLEPPEAS,3.32

row,Variant,protein stability index
1,TIRLRPRQVLCEKCKSTLGPPEAS,2.29
2,TIRLRPRQVLCEKCKSTLFPPEAS,2.83
3,TIRLRPRQVLCEKCKSTLVPPEAS,3.18
4,TIRLRPRQVLCEKCKSTLSPPYAS,2.31
5,TIRLRPRQVLCEKCKSTLSPPKAS,2.62
6,TIRLRPRQVLCEKCKSTLSPPPAS,2.69
7,TIRLRPRQVLCEKCKSTLSPPLAS,2.85
8,TIRLRPRQVLCEKCKSTLSPPIAS,2.09
9,TIRLRPRQVLCEKCKSTLSPPWAS,1.94
10,TIRLRPRQVLCEKCKSTLSPPRAS,2.32
11,TIRLRPRQVLCEKCKSTLSPPSAS,2.81
12,TIRLRPRQVLCEKCKSTLSPPAAS,2.66
13,TIRLRPRQVLCEKCKSTLSPPMAS,2.4
14,TIRLRPRQVLCEKCKSTLSPPDAS,3.41
15,TIRLRPRQVLCEKCKSTLSPPQAS,2.58
16,TIRLRPRQVLCEKCKSTLSPPVAS,3.18
17,TIRLRPRQVLCEKCKSTLSPPNAS,2.46
18,TIRLRPRQVLCEKCKSTLSPPGAS,2.18
19,TIRLRPRQVLCEKCKSTLSPPTAS,3.15
20,TIRLRPRQVLCEKCKSTLSPPCAS,2.42
21,TIRLRPRQVLCEKCKSTLSPPHAS,2.34
22,TIRLRPRQVLCEKCKSTLSPPFAS,2.02
